In the data set the target is ΔAPE1 E96Q/D210N (catalytically dead, crystallization construct) (Homo sapiens (human), UniProt P27695 44-318, C138A;E96Q;D210N). The experiment in a line: crystal structure.
Chain of ΔAPE1 E96Q/D210N (catalytically dead, crystallization construct) (P27695 44-318 E96Q/C138A/D210N): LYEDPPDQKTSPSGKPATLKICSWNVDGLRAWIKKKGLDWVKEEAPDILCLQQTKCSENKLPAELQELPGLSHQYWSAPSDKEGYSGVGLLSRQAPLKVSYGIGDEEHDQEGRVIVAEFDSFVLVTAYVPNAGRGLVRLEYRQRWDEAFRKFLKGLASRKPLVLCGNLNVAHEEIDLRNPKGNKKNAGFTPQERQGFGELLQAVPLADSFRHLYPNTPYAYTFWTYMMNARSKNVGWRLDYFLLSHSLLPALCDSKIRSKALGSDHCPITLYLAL

B1: 21-mer nicked 3'-8oxoG opposite C (crystal) (dsDNA)
DNA 1: GGATCCGTCGACCGCATCAGC
DNA 2: GCTGATGCGG
DNA 3: TCGACGGATCC
modifications: 8-oxoG at 3' end of upstream strand (strand 2, written G); 5'-phosphate on downstream strand (strand 3)
Turning to B1, the binding result is reported as “binds”.
